Data: patent publication US20260209359A1 (NEXTERA, published 2026)

Tests used:
[1] = molecular target: T1, HLA-A*02:01/MAGE-A4^230-239, soluble recombinant biotinylated pHLA (human, UniProt P04439 25-299 at identity 0.94); P61769 21-119, biotinylated); test: SPR, biotinylated pHLA on neutravidin chip, Fab injected (Assay 6-1); Fab format
T1 construct: Empty biotinylated HLA-A2 monomers (Tetramer Shop) loaded with synthetic peptide; also called MAGE-A4 pMHC; MAGE-A4-pHLA

[2] = molecular target: T2, HLA-A*02:01/MAGE-A4^230-239 displayed on cells (MAGE-A4^230-239 pulsed T2 cells; NCI-H1703, A375, THP1, … (human, UniProt P04439 25-365 at identity 0.94); P61769 21-119); test: cell-based or functional assay
[3] = molecular target: T1, HLA-A*02:01/MAGE-A4^230-239, soluble …; test: ELISA, soluble biotinylated pHLA on neutravidin, scDb, protL-HRP
[4] = molecular target: T2, HLA-A*02:01/MAGE-A4^230-239 displayed …; test: cell-based or functional assay; remark: listed apart in the source
[5] = molecular target: T2, HLA-A*02:01/MAGE-A4^230-239 displayed …; test: cell-based or functional assay; remark: listed apart in the source
[6] = molecular target: T2, HLA-A*02:01/MAGE-A4^230-239 displayed …; test: cell-based or functional assay; remark: listed apart in the source
[7] = molecular target: T1, HLA-A*02:01/MAGE-A4^230-239, soluble …; test: SPR, biotinylated pHLA on neutravidin chip, scDb without His-tag injected (Assay 6-2)

B1: AM2 Fab (Fab, V domains shown)
VH: QVQLVQSGAEVKKPGASVKVSCKVSGYTLTELSMHWVRQAPGKGLEWMGGFDPEDGETIYAQKFQGRVTMTEDTSTDTAYMELSSLRSEDTAVYYCATDQGSSWGFYWGQGTLVTVSS
VL: DIRVTQSPSSLSASVGDRVTITCRASQNIMWYLNWYQQKPGKAPKLLIYAASSLQSGVPSRFSGSGSGTDFTLTISSLQPEDFATYYCQQSYSTPYTFGQGTKLEIKR
- Kd [1]: 86.3 nM

B2: AM10 Fab (Fab, V domains shown)
VH: QVQLVQSGAEVKKPGASVKVSCKVSGYTLTELSMHWVRQAPGKGLEWMGGFDPEDGETIYAQKFQGRVTMTEDTSTDTAYMELSSLRSEDTAVYYCATDQGASWGFYWGQGTLVTVSS
VL: not shown
notes: Fab format
- Kd [1]: 325 nM

B3: AM15 Fab (Fab, V domains shown)
VH: QVQLVQSGAEVKKPGASVKVSCKVSGYTLTELSMHWVRQAPGKGLEWMGGFDPEDGETIYAQKFQGRVTMTEDTSTDTAYMELSSLRSEDTAVYYCATDQGSSWGFYWGQGTLVTVSS
VL: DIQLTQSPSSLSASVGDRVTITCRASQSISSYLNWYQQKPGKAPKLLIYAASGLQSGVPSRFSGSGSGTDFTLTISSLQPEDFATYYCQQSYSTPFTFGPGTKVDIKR
- Kd [1]: 148 nM

B4: AMC9 Fab (Fab, V domains shown)
VH: QVQLVQSGAEVKKPGASVKVSCKVSGYTLTELSMHWVRQAPGKGLEWMGGFDPEDGETIYAQKFQGRVTMTEDTSTDTAYMELSSLRSEDTAVYYCATDQGASWGFYWGQGTLVTVSS
VL: DIRVTQSPSSLSASVGDRVTITCRASQNIMWYLNWYQQKPGKAPKLLIYAASSLQSGVPSRFSGSGSGTDFTLTISSLQPEDFATYYCQQSYSTPYTFGQGTKLEIKR
- Kd [1]: 15.8 nM

B5: AMC8 scDb (bispecific antibody)
chain: DIRLTQSPSSLSASVGDRVTMTCRASQTVATYVNWYQQKPGRAPKLLMYVTSIRQSEVPSRFSGDGFGTDFTLTINPLQPDDFATYYCQQAYSTPVTFGQGTKLEIKGGGGSEVQLQQSGPELVKPGASMKISCKASGYSFTGYTMNWVKQSHGKNLEWMGLINPYKGVSTYNQKFKDKATLTVDKSSSTAYMELLSLTSEDSAVYYCARSGYYGDSDWYFDVWGAGTTVTVSSGGGGSGGGGSGGGGSDIQMTQTTSSLSASLGDRVTISCRASQDIRNYLNWYQQKPDGTVKLLIYYTSRLHSGVPSKFSGSGSGTDYSLTISNLEQEDIATYFCQQGNTLPWTFAGGTKLEIKGGGGSQVQLVQSGAEVKKPGASVKVSCKVSGYTLTELSMHWVRQAPGKGLEWMGGFDPEDGETIYAQKFQGRVTMTEDTSTDTAYMELSSLRSEDTAVYYCATDQGASWGFYWGQGTLVTVSS
notes: as m68
- EC50 vs. A375 (pM), T-cell specific killing [2]: 1.6 pM
- EC50 [3]: 0.88 nM
- IFNγ EC50 vs. target positive cells (pM) [4]: 7.7 pM
- EC50 vs. NCI-H1703 (pM), T-cell specific killing [5]: 2.51 pM

B6: AM2 scDb (bispecific antibody)
chain: DIRVTQSPSSLSASVGDRVTITCRASQNIMWYLNWYQQKPGKAPKLLIYAASSLQSGVPSRFSGSGSGTDFTLTISSLQPEDFATYYCQQSYSTPYTFGQGTKLEIKGGGGSEVQLQQSGPELVKPGASMKISCKASGYSFTGYTMNWVKQSHGKNLEWMGLINPYKGVSTYNQKFKDKATLTVDKSSSTAYMELLSLTSEDSAVYYCARSGYYGDSDWYFDVWGAGTTVTVSSGGGGSGGGGSGGGGSDIQMTQTTSSLSASLGDRVTISCRASQDIRNYLNWYQQKPDGTVKLLIYYTSRLHSGVPSKFSGSGSGTDYSLTISNLEQEDIATYFCQQGNTLPWTFAGGTKLEIKGGGGSQVQLVQSGAEVKKPGASVKVSCKVSGYTLTELSMHWVRQAPGKGLEWMGGFDPEDGETIYAQKFQGRVTMTEDTSTDTAYMELSSLRSEDTAVYYCATDQGSSWGFYWGQGTLVTVSS
notes: VLA-VHB-VLB-VHA, anti-CD3 UCHT1
- EC50 vs. A375 (pM), T-cell specific killing [2]: 3.7 pM
- EC50 [3]: 0.32 nM
- IFNγ EC50 vs. target positive cells (pM) [4]: 4.4 pM
- EC50 vs. NCI-H1703 (pM), T-cell specific killing [5]: 2.2 pM
- EC50 vs. C-33-A (pM), T-cell specific killing [6]: 7.2 pM
- EC50 vs. HuTu80 (pM), T-cell specific killing [6]: 7.8 pM

B7: AMC11 scDb (bispecific antibody)
chain: DIRVTQSPSSLSASVGDRVTITCRASQNIMWYLNWYQQKPGKAPKLLIYAASSLQSGVPSRFSGSGSGTDFTLTISSLQPEDFATYYCQQAYRIPYTFGQGTKLEIKGGGGSEVQLQQSGPELVKPGASMKISCKASGYSFTGYTMNWVKQSHGKNLEWMGLINPYKGVSTYNQKFKDKATLTVDKSSSTAYMELLSLTSEDSAVYYCARSGYYGDSDWYFDVWGAGTTVTVSSGGGGSGGGGSGGGGSDIQMTQTTSSLSASLGDRVTISCRASQDIRNYLNWYQQKPDGTVKLLIYYTSRLHSGVPSKFSGSGSGTDYSLTISNLEQEDIATYFCQQGNTLPWTFAGGTKLEIKGGGGSQVQLVQSGAEVKKPGASVKVSCKVSGYTLTELSMHWVRQAPGKGLEWMGGFDPEDGETIYAQKFQGRVTMTEDTSTDTAYMELSSLRSEDTAVYYCATDQGSSWGFYWGQGTLVTVSS
notes: as m68
- EC50 vs. A375 (pM), T-cell specific killing [2]: 2.3 pM
- EC50 [3]: 0.81 nM
- IFNγ EC50 vs. target positive cells (pM) [4]: 8.5 pM
- EC50 vs. NCI-H1703 (pM), T-cell specific killing [5]: 0.72 pM

B8: AM11 scDb (bispecific antibody)
chain: DIRVTQSPSSLSASVGDRVTITCRADIDIRWYLNWYQQKPGKAPKLLIYAASSLQSGVPSRFSGSGSGTDFTLTISSLQPEDFATYYCQQSYSTPYTFGQGTKLEIKGGGGSEVQLQQSGPELVKPGASMKISCKASGYSFTGYTMNWVKQSHGKNLEWMGLINPYKGVSTYNQKFKDKATLTVDKSSSTAYMELLSLTSEDSAVYYCARSGYYGDSDWYFDVWGAGTTVTVSSGGGGSGGGGSGGGGSDIQMTQTTSSLSASLGDRVTISCRASQDIRNYLNWYQQKPDGTVKLLIYYTSRLHSGVPSKFSGSGSGTDYSLTISNLEQEDIATYFCQQGNTLPWTFAGGTKLEIKGGGGSQVQLVQSGAEVKKPGASVKVSCKVSGYTLTELSMHWVRQAPGKGLEWMGGFDPYLARTIYAQKFQGRVTMTEDTSTDTAYMELSSLRSEDTAVYYCATDQGSSWGFYWGQGTLVTVSS
notes: as m68; without a His-tag in the SPR assay
- Kd [7]: 3.2 nM
- EC50 [3]: 0.17 nM
- IFNγ EC50 vs. target positive cells (pM) [4]: 7.2 pM
- EC50 vs. NCI-H1703 (pM), T-cell specific killing [5]: 3.1 pM

B9: AMC9 scDb (bispecific antibody)
chain: DIRVTQSPSSLSASVGDRVTITCRASQNIMWYLNWYQQKPGKAPKLLIYAASSLQSGVPSRFSGSGSGTDFTLTISSLQPEDFATYYCQQSYSTPYTFGQGTKLEIKGGGGSEVQLQQSGPELVKPGASMKISCKASGYSFTGYTMNWVKQSHGKNLEWMGLINPYKGVSTYNQKFKDKATLTVDKSSSTAYMELLSLTSEDSAVYYCARSGYYGDSDWYFDVWGAGTTVTVSSGGGGSGGGGSGGGGSDIQMTQTTSSLSASLGDRVTISCRASQDIRNYLNWYQQKPDGTVKLLIYYTSRLHSGVPSKFSGSGSGTDYSLTISNLEQEDIATYFCQQGNTLPWTFAGGTKLEIKGGGGSQVQLVQSGAEVKKPGASVKVSCKVSGYTLTELSMHWVRQAPGKGLEWMGGFDPEDGETIYAQKFQGRVTMTEDTSTDTAYMELSSLRSEDTAVYYCATDQGASWGFYWGQGTLVTVSS
notes: as m68
- EC50 vs. A375 (pM), T-cell specific killing [2]: 2.4 pM
- EC50 [3]: 0.62 nM
- IFNγ EC50 vs. target positive cells (pM) [4]: 7.6 pM
- EC50 vs. NCI-H1703 (pM), T-cell specific killing [5]: 1.68 pM
- EC50 vs. C-33-A (pM), T-cell specific killing [6]: 1.33 pM
- EC50 vs. HuTu80 (pM), T-cell specific killing [6]: 6.6 pM

B10: AM14 scDb (bispecific antibody)
chain: DIQLTQSPSSLSASVGDRVTITCRADIDIRWYLNWYQQKPGKAPKLLIYAASGLQSGVPSRFSGSGSGTDFTLTISSLQPEDFATYYCQQSYSTPFTFGPGTKVDIKGGGGSEVQLQQSGPELVKPGASMKISCKASGYSFTGYTMNWVKQSHGKNLEWMGLINPYKGVSTYNQKFKDKATLTVDKSSSTAYMELLSLTSEDSAVYYCARSGYYGDSDWYFDVWGAGTTVTVSSGGGGSGGGGSGGGGSDIQMTQTTSSLSASLGDRVTISCRASQDIRNYLNWYQQKPDGTVKLLIYYTSRLHSGVPSKFSGSGSGTDYSLTISNLEQEDIATYFCQQGNTLPWTFAGGTKLEIKGGGGSQVQLVQSGAEVKKPGASVKVSCKVSGYTLTELSMHWVRQAPGKGLEWMGGFDPEDGETIYAQKFQGRVTMTEDTSTDTAYMELSSLRSEDTAVYYCATDQGSSWGFYWGQGTLVTVSS
notes: as for B8
- Kd [7]: 0.44 nM
- EC50 [3]: 0.1 nM
- IFNγ EC50 vs. target positive cells (pM) [4]: 4.1 pM
- EC50 vs. NCI-H1703 (pM), T-cell specific killing [5]: 5.1 pM
